What all share (assay type): cell-based
One assay deals with T1, gp140^prototrk (Rattus norvegicus, UniProt P35739).
T1 construct: tyrosine phosphorylation in response to NGF addition to PC12 cells; endogenous in cells; host or cells: PC12 cells
As to the kind of experiment: trk tyrosine phosphorylation in PC12 cells treated with NGF (32P labelling / Ptyr immunoblot of trk immunoprecipitates). As to the method:
FIGS. 1A-C show the tyrosine phosphorylation of gp140trk in PC12 cells and trk-expressing NIH-3T3 cells treated with NGF. FIG. 1A, gp140trk immunoprecipitated from PC12 cells or trk-expressing 3T3 cells labeled with ^32 P-orthophosphate. Immunoprecipitates were prepared with rabbit anti-trk antisera 43-4 (D. Martin-Zanca et al., Mol Cell. Biol. 9:24-33 (1989)) from lysates prepared from 3T3 cells expressing the rat trk gene (trk 3T3) (lane 1) or PC12 cells treated for 5 min with 100 ng/ml NGF at 37° C. (lanes 2 and 4) or mock treated (lane 3). The immunoprecipitate shown in lane 2 was prepared in the presence of the peptide used to generate the rabbit 43-4 trk antibody (Martin-Zanca et al., (1989)). Shown in FIG. 1B is the phosphoamino acid analysis of trk proteins phosphorylated in vitro in p140trk immunoprecipitates from NGF treated PC12 cells in vivo from NGF treated (+) or untreated (-) PC12 cells, or in vivo from trk 3T3 cells. The positions of phosphoserine (S), phosphothreonine (T), and phosphotyrosine (Y) are indicated. FIG. 1C, trk proteins from trk 3T3 cells phosphorylated […]. In lanes 1-3, gp140trk immunoprecipitates were probed with P-tyr antibodies. In lanes 4-6, gp140trk proteins were phosphorylated in vitro in kinase assays. Cells were treated with suramin (lanes 2 and 5) or with 500 ng/ml NGF for 10 min following suramin treatment. The band migrating at 110 kDa is a glycosylation precursor of gp140^prototrk (Martin-Zanca et al., (1989)). The band at the bottom of the figure is IgG. Molecular weight markers in kDa are indicated.
rtrk 3T3 cells were generated by CaPO4 mediated transfection of a rat trk cDNA into NIH-3T3 cells. Rat trk cDNAs were obtained from an embryonic rat DRG cDNA library. The longest trk cDNA obtained (2.4 kbp) was missing approximately 150 bp of the coding region as compared to available mouse and human trk sequence. The missing bases plus minimal (~50 bp) 5' flanking non-coding sequences were replaced from mouse first coding exon sequences and the reconstructed gene was placed downstream of an MSV-LTR. PC12 cells or rtrk 3T3 cells (2×10^7) were labeled with ^32 P orthophosphate (1 mCi.ml in 4 ml) for 4 hr at 37° C. Cells were treated with NGF for the indicated times, washed, lysed in buffer containing 1% NP40, and the lysates immunoprecipitated with trk antibody 43-4 (D. R. Kaplan et al., Cell 61:125-133 (1990)) and electrophoresed on 7.5% SDS-PAGE gels as previously described (Kaplan et al., (1990)). For b, the phosphorylated trk bands were eluted from the gel and phosphoamino acid analysis performed as described (B. M. Sefton et al., J. Cell 24:165-174 (1981)). gp140trk protein from NGF treated PC12 cells was phosphorylated in vitro. For c, rtrk 3T3 cells were treated with 1 mM suramin in Dulbecco's Modified Eagle Medium (DMEM) for 2 h or mock treated. Following extensive washing of the cells with DMEM, NGF was added for the time indicated. Cells were lysed and the lysates were immunoprecipitated with trk antibody. Immunoprecipitates were either subjected to immunoblot analysis with the phosphotyrosine (Ptyr) monoclonal antibody 4G10 (Lanes 1-3), or were analyzed in kinase assays. (D. K. Morrison, et al. Cell 58:649-657 (1989) and Kaplan et al., (1990)). Similar amounts of trk protein were present in each lane.
FIGS. 2A-C. Time course, growth factor specificity, and dose response of trk tyrosine phosphorylation in PC12 cells. A, Time course of trk tyrosine phosphorylation. Cells (2×10^7) were treated with 50 ng/ml NGF at 37° C. B, Effects of growth and differentiation factors on trk tyrosine phosphorylation. Cells were treated with 100 ng/ml NGF, 100 ng/ml basic fibroblast growth factor (FGF) (Boehringer Mannheim Biochemicals), 100 ng/ml epidermal growth factor (EGF) (Upstate Biotechnology, Inc.), 100 nM insulin (Sigma), or 1 μg/ml phorbal 12-myristate […] (PMA) (Sigma) for 15 min. at 37° C. C, dose response of trk tyrosine phosphorylation. […]
In general terms: A western blot detects proteins with antibodies after separation by electrophoresis.

The target in a further assay is p140^prototrk (Rattus norvegicus, UniProt P35739). The experiment in a line: trk tyrosine phosphorylation in rtrk-3T3 cells, suramin treatment followed by NGF (in vivo and immune complex kinase assays). The note with it: suramin treated rtrk-3T3 cells, NGF (500 ng/ml) added for 10 min.
Chain of p140^prototrk (P35739 33-799): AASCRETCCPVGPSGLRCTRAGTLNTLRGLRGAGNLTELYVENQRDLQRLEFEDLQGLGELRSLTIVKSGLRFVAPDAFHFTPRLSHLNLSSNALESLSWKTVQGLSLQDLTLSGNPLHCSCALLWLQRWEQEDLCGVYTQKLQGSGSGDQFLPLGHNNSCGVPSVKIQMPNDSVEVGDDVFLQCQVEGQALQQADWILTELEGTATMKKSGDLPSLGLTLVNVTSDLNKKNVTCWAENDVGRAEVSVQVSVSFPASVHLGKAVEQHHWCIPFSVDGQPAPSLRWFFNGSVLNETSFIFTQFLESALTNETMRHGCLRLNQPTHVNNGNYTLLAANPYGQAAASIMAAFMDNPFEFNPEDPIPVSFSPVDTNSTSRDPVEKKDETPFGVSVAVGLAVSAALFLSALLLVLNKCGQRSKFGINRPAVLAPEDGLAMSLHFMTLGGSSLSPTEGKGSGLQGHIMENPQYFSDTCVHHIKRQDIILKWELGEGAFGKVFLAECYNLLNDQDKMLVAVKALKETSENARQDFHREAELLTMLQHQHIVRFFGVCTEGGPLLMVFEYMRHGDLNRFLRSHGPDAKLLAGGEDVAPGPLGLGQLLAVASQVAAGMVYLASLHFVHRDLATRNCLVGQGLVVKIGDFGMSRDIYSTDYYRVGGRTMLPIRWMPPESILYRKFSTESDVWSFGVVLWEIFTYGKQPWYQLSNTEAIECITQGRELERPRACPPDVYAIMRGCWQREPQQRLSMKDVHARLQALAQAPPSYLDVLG
For a further assay, the system named is trk. The experiment in a line: Growth factor stimulation of trk transfected 3T3 cells (pJM7-23), COS cell supernatants, Ptyr blot. The note with it: trk-expressing 3T3 cells (pJM7-23), 100 μl/ml NGF-COS cell supernatant, 10 minutes at 37° C. The method, then:
To study growth factor stimulation in cells transfected with trkB, NIH 3T3 trk transfected 3T3 (pJM7-23), trkB transfected 3T3 cells (pJM8-3) and non-transfected 3T3 cells (control cells) were exposed to media or media containing 100 μl/ml of NGF-COS cell supernatant, 100 μl/ml NT-3 COS cell supernatant, 5 μl/ml human platelet extract, or 50 μl/ml human platelet extract, for 10 minutes at 37° C. The plates were rinsed, lysed, and the trk or trkB was immunoprecipitated with rabbit antisera 443 and protein A Sepharose in the presence or absence of 10 μg/ml blocking peptide. After washing, the beads were denatured in sample buffer, the proteins were separated on a 7.5% gel and transferred to nitrocellulose. The blots were blocked with 2% BSA and probed with an antiphosphotyrosine monoclonal antibody (4G10). After binding of alkaline phosphate-conjugatedrabbit-anti-mouse antibody, the blots were washed and developed with BCIP and NBT.

T1 sequence (P35739 33-799): as above

As for “NGF: neurotrophic polypeptide factor, nerve growth factor; ligand of trk proto-oncogene receptor”, in the assay with gp140^prototrk (50 ng/ml NGF, 37° C.), the “time to maximum levels of trk tyrosine phosphorylation” value was “five”. The “stimulation of tyrosine phosphorylation of gp140^prototrk” value with gp140^prototrk (32P-orthophosphate labelled, 50 ng/ml NGF for 5 min) was found to be 20 fold. Further, in the assay with gp140^prototrk (30 min at 37° C., dose response), the “half maximal tyrosine phosphorylation concentration” value was 0.1 ng/mL. Besides, in the assay with gp140^prototrk (fully differentiated, two days of NGF), the “trk tyrosine phosphorylation after two days of treatment” value is given as “Residual phosphorylation was detected”. The “stimulation of tyrosine phosphorylation of gp140^prototrk in vivo and in vitro” value in the assay with p140^prototrk was “at least 10 fold”. In addition, the “stimulation of trk tyrosine phosphorylation” value in the assay on trk is “stimulated”.
